Numbering of substitutions follows the chain as printed.
T1: IFN-αF (human, UniProt P01568 24-189)
T1 construct: also called IFN-α21; alpha F
T1 chain: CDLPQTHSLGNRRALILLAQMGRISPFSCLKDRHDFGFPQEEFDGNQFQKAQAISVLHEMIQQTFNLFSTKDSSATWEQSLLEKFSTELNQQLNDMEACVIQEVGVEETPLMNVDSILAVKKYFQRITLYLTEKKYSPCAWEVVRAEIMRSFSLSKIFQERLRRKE

B1: IFWM3306 (antibody, V domains shown)
VH: EVQLVQSGAEVKKPGESLKISCKGSGYSFTSYWIGWVRQMPGKGLEWMGIIDPSDSDTRYSPSFQGQVTISADKSISTAYLQWSSLKASDTAMYYCARHPGLNWAPDFDYWGQGTLVTVSS
VL: DIQMTQSPSSLSASVGDRVTITCRASQSITNFLNWYQQKPGKAPKLLIYFASSLQSGVPSRFSGSGSGTDFTLTISSLQPEDFATYYCQQSLDFPLTFGQGTKVEIK
notes: VH IFWH591, VL IFWL1000; converted mAb; also called IFWB3041
B2: IFWM3343 (antibody, V domains shown)
VH: B1 VH with R59A
VL: B1 VL with T30G, N31S, F32A, L92Y
notes: VH IFWH624, VL IFWL997; converted mAb; also called IFWB3078
B3: IFWM3311 (antibody, V domains shown)
VH: B1 VH
VL: B1 VL with T30D, N31D, L92H, D93T, F94L
notes: VH IFWH591, VL IFWL1009; converted mAb; also called IFWB3046
B4: IFWM3319 (antibody, V domains shown)
VH: B1 VH
VL: B1 VL with N31G, F50A, L92H
notes: VH IFWH591, VL IFWL1041; converted mAb; also called IFWB3054
B5: IFWM3315 (antibody, V domains shown)
VH: B1 VH
VL: B1 VL with N31S, F32S, L92F, F94L
notes: VH IFWH591, VL IFWL1017; converted mAb; also called IFWB3050
B6: IFWM3316 (antibody, V domains shown)
VH: B1 VH
VL: B1 VL with T30N, N31E, L92Y, D93S, F94T
notes: VH IFWH591, VL IFWL1022; converted mAb; also called IFWB3051
B7: IFWM3348 (antibody, V domains shown)
VH: B1 VH with R59A
VL: B1 VL with T30G, N31G, L92Y, D93S, F94L, L96I
notes: VH IFWH624, VL IFWL1006; converted mAb; also called IFWB3083
B8: IFWM3318 (antibody, V domains shown)
VH: B1 VH
VL: B1 VL with T30S, N31E, F32Y, L92H, D93S, F94L, L96I
notes: VH IFWH591, VL IFWL1038; converted mAb; also called IFWB3053
B9: IFWM3342 (antibody, V domains shown)
VH: B1 VH with R59A
VL: B1 VL with T30G, N31S, L92Y, D93S, F94I, L96I
notes: VH IFWH624, VL IFWL992; converted mAb; also called IFWB3077
B10: IFWM3321 (antibody, V domains shown)
VH: B1 VH
VL: B1 VL with T30D, N31G, F32A, S91A, L92Y
notes: VH IFWH591, VL IFWL1048; converted mAb; also called IFWB3056
B11: IFWM3309 (antibody, V domains shown)
VH: B1 VH
VL: B1 VL with T30G, N31G, L92Y, D93S, F94L, L96I
notes: VH IFWH591, VL IFWL1006; converted mAb; also called IFWB3044
B12: IFWM3345 (antibody, V domains shown)
VH: B1 VH with R59A
VL: B1 VL
notes: VH IFWH624, VL IFWL1000; converted mAb; also called IFWB3080
B13: IFWM3347 (antibody, V domains shown)
VH: B1 VH with R59A
VL: B1 VL with T30A, N31E, L92I
notes: VH IFWH624, VL IFWL1004; converted mAb; also called IFWB3082
B14: IFWM3346 (antibody, V domains shown)
VH: B1 VH with R59A
VL: B1 VL with T30G, N31D, S91A
notes: VH IFWH624, VL IFWL1001; converted mAb; also called IFWB3081
B15: IFWM3341 (antibody, V domains shown)
VH: B1 VH with R59A
VL: B1 VL with T30N, N31R, F50A, S91A, L92I, F94L, L96F
notes: VH IFWH624, VL IFWL991; converted mAb; also called IFWB3076
B16: IFWM3350 (antibody, V domains shown)
VH: B1 VH with R59A
VL: B1 VL with T30D, N31D, L92H, D93T, F94L
notes: VH IFWH624, VL IFWL1009; converted mAb; also called IFWB3085
B17: IFWM3310 (antibody, V domains shown)
VH: B1 VH
VL: B1 VL with T30G, N31K, F32S, L92Y
notes: VH IFWH591, VL IFWL1007; converted mAb; also called IFWB3045
B18: IFWM3322 (antibody, V domains shown)
VH: B1 VH
VL: B1 VL with T30A, N31D, L92H, D93S
notes: VH IFWH591, VL IFWL1051; converted mAb; also called IFWB3057
B19: IFWM3325 (antibody, V domains shown)
VH: B1 VH
VL: B1 VL with T30R, F32S, Y49K, F50W, S91L, L92Y, F94W
notes: VH IFWH591, VL IFWL1060; converted mAb; also called IFWB3060
B20: IFWM3320 (antibody, V domains shown)
VH: B1 VH
VL: B1 VL with T30N, N31G, F32V, L92H
notes: VH IFWH591, VL IFWL1047; converted mAb; also called IFWB3055
B21: IFWM3344 (antibody, V domains shown)
VH: B1 VH with R59A
VL: B1 VL with T30S, N31K, L92N, D93T, F94L, L96F
notes: VH IFWH624, VL IFWL998; converted mAb; also called IFWB3079
B22: IFWM3349 (antibody, V domains shown)
VH: B1 VH with R59A
VL: B1 VL with T30G, N31K, F32S, L92Y
notes: VH IFWH624, VL IFWL1007; converted mAb; also called IFWB3084
B23: IFWM3340 (antibody, V domains shown)
VH: B1 VH with R59A
VL: B1 VL with T30D, N31G, F32S, L92Y
notes: VH IFWH624, VL IFWL983; converted mAb; also called IFWB3075
B24: IFWM3314 (antibody, V domains shown)
VH: B1 VH
VL: B1 VL with T30D, N31R, F32A, L92F
notes: VH IFWH591, VL IFWL1014; converted mAb; also called IFWB3049
B25: IFWM3308 (antibody, V domains shown)
VH: B1 VH
VL: B1 VL with T30A, N31E, L92I
notes: VH IFWH591, VL IFWL1004; converted mAb; also called IFWB3043
B26: IFWM3317 (antibody, V domains shown)
VH: B1 VH
VL: B1 VL with T30S, N31K, L92Y, L96I
notes: VH IFWH591, VL IFWL1026; converted mAb; also called IFWB3052

Molecular target: T2, IFN-α4a (human, UniProt P05014 24-189)
T2 construct: also called IFN-αM1
Experiment: ProteOn, one antigen concentration

Kd	Binder
0.147 nM	B1
0.237 nM	B2
0.223 nM	B3
0.274 nM	B4
0.24 nM	B5
0.168 nM	B6
0.089 nM	B7
0.252 nM	B8
0.589 nM	B9
0.159 nM	B10
0.383 nM	B11
0.324 nM	B12
0.35 nM	B13
0.48 nM	B14
0.445 nM	B15
0.161 nM	B16
0.177 nM	B17
0.272 nM	B18
0.111 nM	B19
0.089 nM	B20
0.442 nM	B21
0.174 nM	B22
0.201 nM	B23
0.092 nM	B24
0.246 nM	B25
0.37 nM	B26

Molecular target: T3, IFN-αWA (human, UniProt P05015 24-189)
T3 construct: also called IFN-α16; alpha WA
Experiment: ProteOn, one antigen concentration

Kd	Binder
0.07 nM	B1
0.083 nM	B2
0.072 nM	B3
0.107 nM	B4
0.115 nM	B5
0.073 nM	B6
0.049 nM	B7
0.091 nM	B8
0.095 nM	B9
0.058 nM	B10
0.139 nM	B11
0.111 nM	B12
0.125 nM	B13
0.17 nM	B14
0.134 nM	B15
0.066 nM	B16
0.091 nM	B17
0.086 nM	B18
0.091 nM	B19
0.041 nM	B20
0.105 nM	B21
0.102 nM	B22
0.056 nM	B23
0.042 nM	B24
0.099 nM	B25
0.162 nM	B26

Molecular target: T1, IFN-αF
Experiment: ProteOn, one antigen concentration

Kd	Binder
0.025 nM	B1
0.063 nM	B2
0.021 nM	B3
0.044 nM	B4
0.05 nM	B5
0.033 nM	B6
0.064 nM	B7
0.034 nM	B8
0.164 nM	B9
0.024 nM	B10
0.14 nM	B11
0.12 nM	B12
0.136 nM	B13
0.117 nM	B14
0.088 nM	B15
0.054 nM	B16
0.04 nM	B17
0.033 nM	B18
0.032 nM	B19
0.013 nM	B20
0.14 nM	B21
0.052 nM	B22
0.041 nM	B23
0.021 nM	B24
0.053 nM	B25
0.121 nM	B26

Molecular target: T4, IFN-αG (human, UniProt P01569 24-189)
T4 construct: also called IFN-α5; alpha G
Experiment: ProteOn, one antigen concentration

Kd	Binder
0.029 nM	B1
0.06 nM	B2
0.056 nM	B3
0.049 nM	B4
0.061 nM	B5
0.087 nM	B6
0.02 nM	B7
0.04 nM	B8
0.014 nM	B9
0.036 nM	B10
0.12 nM	B11
0.092 nM	B12
0.084 nM	B13
0.086 nM	B14
0.063 nM	B15
0.098 nM	B16
0.054 nM	B17
0.058 nM	B18
0.033 nM	B19
0.033 nM	B20
0.112 nM	B21
0.065 nM	B22
0.024 nM	B23
0.028 nM	B24
0.045 nM	B25
0.126 nM	B26

Molecular target: T5, IFN-αC (human, UniProt P01566 24-189)
T5 construct: also called IFN-α10; alpha C
Experiment: ProteOn, one antigen concentration

Kd	Binder
0.027 nM	B1
0.065 nM	B2
0.036 nM	B3
0.052 nM	B4
0.059 nM	B5
0.042 nM	B6
0.083 nM	B7
0.03 nM	B8
0.142 nM	B9
0.033 nM	B10
0.109 nM	B11
0.072 nM	B12
0.096 nM	B13
0.105 nM	B14
0.104 nM	B15
0.057 nM	B16
0.057 nM	B17
0.042 nM	B18
0.022 nM	B19
0.02 nM	B20
0.161 nM	B21
0.056 nM	B22
0.048 nM	B23
0.026 nM	B24
0.052 nM	B25
0.133 nM	B26

Molecular target: T6, human IFN-ω (human, UniProt P05000 24-195)
T6 construct: also called interferon omega
Experiment: ProteOn, one antigen concentration

Kd	Binder
0.02 nM	B1
0.02 nM	B2
0.012 nM	B3
0.034 nM	B4
0.063 nM	B5
0.042 nM	B6
0.05 nM	B7
0.018 nM	B8
0.068 nM	B9
0.033 nM	B10
0.055 nM	B11
0.004 nM	B12
0.048 nM	B13
0.052 nM	B14
0.008 nM	B15
0.02 nM	B16
0.065 nM	B17
0.04 nM	B18
0.011 nM	B19
0.021 nM	B20
0.078 nM	B21
0.007 nM	B22
0.004 nM	B23
0.02 nM	B24
0.038 nM	B25
0.016 nM	B26

Molecular target: T7, IFN-αJ1 (human, UniProt P01567 24-189)
T7 construct: also called IFN-α7; alpha J1
Experiment: ProteOn, one antigen concentration

Kd	Binder
0.086 nM	B1
0.157 nM	B2
0.056 nM	B3
0.151 nM	B4
0.134 nM	B5
0.07 nM	B6
0.164 nM	B7
0.119 nM	B8
0.269 nM	B9
0.079 nM	B10
0.275 nM	B11
0.169 nM	B12
0.411 nM	B13
0.505 nM	B14
0.275 nM	B15
0.055 nM	B16
0.101 nM	B17
0.127 nM	B18
0.092 nM	B19
0.061 nM	B20
0.274 nM	B21
0.123 nM	B22
0.124 nM	B23
0.039 nM	B24
0.203 nM	B25
0.206 nM	B26

— patent publication US20150368338A1 (Janssen / Centocor, published 2015)
